# According to PMC4909234:
# Molecular target: human complement factor H (CFH) (human) (UniProt P08603)
# Test: ELISA; […] (20 mM HEPES, 50 mM NaCl, pH 7.4) […]
# Chain of human complement factor H (CFH) (human) (P08603 19-1231): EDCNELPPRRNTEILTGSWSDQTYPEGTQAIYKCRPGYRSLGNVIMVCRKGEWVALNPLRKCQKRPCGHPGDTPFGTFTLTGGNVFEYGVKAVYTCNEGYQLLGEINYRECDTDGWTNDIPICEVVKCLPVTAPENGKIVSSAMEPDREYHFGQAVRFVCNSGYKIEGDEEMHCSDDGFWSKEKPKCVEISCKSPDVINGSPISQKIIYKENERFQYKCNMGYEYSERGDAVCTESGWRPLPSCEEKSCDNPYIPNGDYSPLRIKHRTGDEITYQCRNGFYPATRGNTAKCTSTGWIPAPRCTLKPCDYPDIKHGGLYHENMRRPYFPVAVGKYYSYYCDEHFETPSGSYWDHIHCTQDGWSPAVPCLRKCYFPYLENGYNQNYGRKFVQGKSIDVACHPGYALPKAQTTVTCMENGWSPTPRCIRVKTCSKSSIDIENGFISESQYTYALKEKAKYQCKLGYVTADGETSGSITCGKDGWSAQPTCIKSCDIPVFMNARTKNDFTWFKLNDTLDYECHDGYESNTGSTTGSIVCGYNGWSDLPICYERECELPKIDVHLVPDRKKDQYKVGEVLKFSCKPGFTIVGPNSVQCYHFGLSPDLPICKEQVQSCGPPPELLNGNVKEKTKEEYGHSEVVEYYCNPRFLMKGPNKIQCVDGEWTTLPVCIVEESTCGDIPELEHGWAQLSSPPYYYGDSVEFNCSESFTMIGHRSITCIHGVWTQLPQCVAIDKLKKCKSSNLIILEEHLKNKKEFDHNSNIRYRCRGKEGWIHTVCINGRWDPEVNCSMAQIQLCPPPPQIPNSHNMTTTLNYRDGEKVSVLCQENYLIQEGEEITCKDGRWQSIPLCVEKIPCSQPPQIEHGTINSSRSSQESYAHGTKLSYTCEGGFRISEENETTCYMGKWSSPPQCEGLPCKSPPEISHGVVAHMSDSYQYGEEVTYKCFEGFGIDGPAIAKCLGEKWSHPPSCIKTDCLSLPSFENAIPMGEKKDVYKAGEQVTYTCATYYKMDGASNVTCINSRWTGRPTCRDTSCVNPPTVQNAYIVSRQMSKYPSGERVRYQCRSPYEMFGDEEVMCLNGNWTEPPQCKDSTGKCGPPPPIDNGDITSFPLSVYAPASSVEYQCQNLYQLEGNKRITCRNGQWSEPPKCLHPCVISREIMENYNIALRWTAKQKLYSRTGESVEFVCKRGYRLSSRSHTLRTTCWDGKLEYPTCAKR
substance,measurement,value
"Recombinant BclA protein (rBclA), His-tagged (from UniProt Q81JD7 1-382) (natural protein)",Kd,910 nM
